We go through 15 variants from the RNAGym collection of RNA variant scans (doi:10.1093/molbev/msab373).

First the molecules themselves.
B1: Azoarcus group I ribozyme (parent)
chain: GUGCCUUGCGCCGGGAAACCACGCAAGGGAUGGUGUCAAAUUCGGCGAAACCUAAGCGCCCGCCCGGGCGUAUGGCAACGCCGAGCCAAGCUUCGGCGCCUGCGCCGAUGAAGGUGUAGAGACUAGACGGCACCCACCUAAGGCAAACGCUAUGGUGAAGGCAUAGUCCAGGGAGUGGCGAAAGUCACACAAACCGG

Variants of B1 are the subject of this data set. Kind of data set: reverse-splicing fitness (ratio to wild type); higher = more active; in vitro selection; Mg2+ level not given. A digest of the protocol: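 An in vitro group I ribozyme library with randomized positions was T7-transcribed and gel-purified. In triplicate, 10 pmol RNA in EPPS pH 7.5 was reacted with 50 pmoles of a 30-nt RNA substrate for 1 h at 37 °C across several added MgCl2 levels (1–48 mM), then stopped with EDTA. Products were reverse transcribed from a substrate-complementary primer, PCR-amplified and sequenced (HiSeq 4000). Fitness is a variant's read proportion after selection over that before, normalised to wild type.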
As for GUGCCUUGCGCCGGGAAACCACGCAAGGGAUGGUGUCAAAUUCGGCGAAACCUAAGCGCCCGCCCGGGCGUAUGGCAACGCAGAGCCAAGCUUCGGCGCCUGCGCCGAUGAAGGUGUAGGGACUAGACGGCACCCACCUAAGGCGAACGUUAUGGUGAAGGCAUAGUCCAGGGAGUGGCGAAAGUCACACAAACCGG [C82A A120G A145G C150U], the reverse-splicing fitness came out at 0.0203.
As to GUGCCUUGCGCCGGGAAACCACGCAAGGGAUGGUGUCAAAUUCGGCGAAACCUAAGCGCCCGCCCGGGCGUAUGGCAACGCCGAGCCAAGCUUCGGCGCCUGCGCCGAUGCAGGUGUAGAGACUAGACGGCACCCACCUAAGGCCAACGCUAUGGUGAAGGCAUAGUCAAGGGAGCGGCGAAAGUCACACAAACCGG [A111C A145C C169A U176C], the reverse-splicing fitness is 0.0113.
As for GUGCCUUGCGCCGGGAAACCACGCAAGGGAUGGUGUCAAAUUCGGCGAAACCUAAGCGCCCGCCCGGGCGUAUGGCAACGCUGAGCCAAGCUUCGGCGCCUGCGCCGAUGCAGGUGUAGCGACUAGACGGCACCCACCUAAGGCUAACGGUAUGGUGAAGGCAUAGUCAAGGGAGCGGCGAAAGUCACACAAACCGG [C82U A111C A120C A145U C150G C169A U176C], the reverse-splicing fitness amounted to 0.00938.
As for GUGCCUUGCGCCGGGAAACCACGCAAGGGAUGGUGUCAAAUUCGGCGAAACCUAAGCGCCCGCCCGGGCGUAUGGCAACGCUGAGCCAAGCUUCGGCGCCUGCGCCGAUGUAGGUGUAGGGACUAGACGGCACCCACCUAAGGCUAACGUUAUGGUGAAGGCAUAGUCUAGGGAGAGGCGAAAGUCACACAAACCGG [C82U A111U A120G A145U C150U C169U U176A], the figure is 0.0203; as for GUGCCUUGCGCCGGGAAACCACGCAAGGGAUGGUGUCAAAUUCGGCGAAACCUAAGCGCCCGCCCGGGCGUAUGGCAACGCUGAGCCAAGCUUCGGCGCCUGCGCCGAUGCAGGUGUAGGGACUAGACGGCACCCACCUAAGGCUAACGGUAUGGUGAAGGCAUAGUCAAGGGAGUGGCGAAAGUCACACAAACCGG [C82U A111C A120G A145U C150G C169A], 0.00828; as for GUGCCUUGCGCCGGGAAACCACGCAAGGGAUGGUGUCAAAUUCGGCGAAACCUAAGCGCCCGCCCGGGCGUAUGGCAACGCUGAGCCAAGCUUCGGCGCCUGCGCCGAUGAAGGUGUAGAGACUAGACGGCACCCACCUAAGGCUAACGCUAUGGUGAAGGCAUAGUCUAGGGAGCGGCGAAAGUCACACAAACCGG [C82U A145U C169U U176C], 0.0127.
Consider GUGCCUUGCGCCGGGAAACCACGCAAGGGAUGGUGUCAAAUUCGGCGAAACCUAAGCGCCCGCCCGGGCGUAUGGCAACGCAGAGCCAAGCUUCGGCGCCUGCGCCGAUGCAGGUGUAGGGACUAGACGGCACCCACCUAAGGCCAACGUUAUGGUGAAGGCAUAGUCCAGGGAGCGGCGAAAGUCACACAAACCGG [C82A A111C A120G A145C C150U U176C], for which the reverse-splicing fitness came to 0.0119.
For GUGCCUUGCGCCGGGAAACCACGCAAGGGAUGGUGUCAAAUUCGGCGAAACCUAAGCGCCCGCCCGGGCGUAUGGCAACGCUGAGCCAAGCUUCGGCGCCUGCGCCGAUGAAGGUGUAGGGACUAGACGGCACCCACCUAAGGCGAACGGUAUGGUGAAGGCAUAGUCGAGGGAGCGGCGAAAGUCACACAAACCGG [C82U A120G A145G C150G C169G U176C], the reverse-splicing fitness turned out to be 0.0112.
As to GUGCCUUGCGCCGGGAAACCACGCAAGGGAUGGUGUCAAAUUCGGCGAAACCUAAGCGCCCGCCCGGGCGUAUGGCAACGCGGAGCCAAGCUUCGGCGCCUGCGCCGAUGCAGGUGUAGUGACUAGACGGCACCCACCUAAGGCGAACGGUAUGGUGAAGGCAUAGUCAAGGGAGUGGCGAAAGUCACACAAACCGG [C82G A111C A120U A145G C150G C169A], the reverse-splicing fitness was determined as 0.00854.
GUGCCUUGCGCCGGGAAACCACGCAAGGGAUGGUGUCAAAUUCGGCGAAACCUAAGCGCCCGCCCGGGCGUAUGGCAACGCCGAGCCAAGCUUCGGCGCCUGCGCCGAUGCAGGUGUAGAGACUAGACGGCACCCACCUAAGGCUAACGAUAUGGUGAAGGCAUAGUCCAGGGAGAGGCGAAAGUCACACAAACCGG [A111C A145U C150A U176A]: the reverse-splicing fitness is 0.114.
As for GUGCCUUGCGCCGGGAAACCACGCAAGGGAUGGUGUCAAAUUCGGCGAAACCUAAGCGCCCGCCCGGGCGUAUGGCAACGCGGAGCCAAGCUUCGGCGCCUGCGCCGAUGGAGGUGUAGAGACUAGACGGCACCCACCUAAGGCCAACGUUAUGGUGAAGGCAUAGUCGAGGGAGAGGCGAAAGUCACACAAACCGG [C82G A111G A145C C150U C169G U176A], the figure is 0.0203; as for GUGCCUUGCGCCGGGAAACCACGCAAGGGAUGGUGUCAAAUUCGGCGAAACCUAAGCGCCCGCCCGGGCGUAUGGCAACGCCGAGCCAAGCUUCGGCGCCUGCGCCGAUGAAGGUGUAGCGACUAGACGGCACCCACCUAAGGCCAACGUUAUGGUGAAGGCAUAGUCCAGGGAGGGGCGAAAGUCACACAAACCGG [A120C A145C C150U U176G], 0.137; as for GUGCCUUGCGCCGGGAAACCACGCAAGGGAUGGUGUCAAAUUCGGCGAAACCUAAGCGCCCGCCCGGGCGUAUGGCAACGCGGAGCCAAGCUUCGGCGCCUGCGCCGAUGCAGGUGUAGGGACUAGACGGCACCCACCUAAGGCCAACGCUAUGGUGAAGGCAUAGUCCAGGGAGUGGCGAAAGUCACACAAACCGG [C82G A111C A120G A145C], 0.013.
GUGCCUUGCGCCGGGAAACCACGCAAGGGAUGGUGUCAAAUUCGGCGAAACCUAAGCGCCCGCCCGGGCGUAUGGCAACGCGGAGCCAAGCUUCGGCGCCUGCGCCGAUGGAGGUGUAGCGACUAGACGGCACCCACCUAAGGCUAACGCUAUGGUGAAGGCAUAGUCAAGGGAGUGGCGAAAGUCACACAAACCGG [C82G A111G A120C A145U C169A]: the reverse-splicing fitness stood at 0.00712.
GUGCCUUGCGCCGGGAAACCACGCAAGGGAUGGUGUCAAAUUCGGCGAAACCUAAGCGCCCGCCCGGGCGUAUGGCAACGCCGAGCCAAGCUUCGGCGCCUGCGCCGAUGUAGGUGUAGAGACUAGACGGCACCCACCUAAGGCCAACGCUAUGGUGAAGGCAUAGUCAAGGGAGUGGCGAAAGUCACACAAACCGG [A111U A145C C169A]: the reverse-splicing fitness amounted to 0.027.
